Assay results as given in paper PMC3380618.

B1: PMe-2 racemic (dsDNA)
DNA 1: TGTGTTGTAGGATATCCTACAGGT
DNA 2: ACCTGTAGGATATCCTACAACACA
modifications: racemic Rp,Sp methylphosphonate at P-2, symmetric in both strands
B2: FRET 14 bp GATATC (dsDNA)
DNA 1: AGAAGATATCTTGA
DNA 2: TCAAGATATCTTCT

Experiments:
EcoRV K119A = EcoRV K119A (UniProt P04390 2-245, K119A); test: filter binding
[1] = target: EcoRV endonuclease wild type (UniProt P04390 2-245); test: FRET

Row | Binder | Kd (EcoRV K119A) [pM] | binding result [1]
1 | B1 | 1.1 | –
2 | B2 | – | binds
